T1: HA-PGBD1 (Homo sapiens, UniProt Q96JS3 1-809)
T1 sequence: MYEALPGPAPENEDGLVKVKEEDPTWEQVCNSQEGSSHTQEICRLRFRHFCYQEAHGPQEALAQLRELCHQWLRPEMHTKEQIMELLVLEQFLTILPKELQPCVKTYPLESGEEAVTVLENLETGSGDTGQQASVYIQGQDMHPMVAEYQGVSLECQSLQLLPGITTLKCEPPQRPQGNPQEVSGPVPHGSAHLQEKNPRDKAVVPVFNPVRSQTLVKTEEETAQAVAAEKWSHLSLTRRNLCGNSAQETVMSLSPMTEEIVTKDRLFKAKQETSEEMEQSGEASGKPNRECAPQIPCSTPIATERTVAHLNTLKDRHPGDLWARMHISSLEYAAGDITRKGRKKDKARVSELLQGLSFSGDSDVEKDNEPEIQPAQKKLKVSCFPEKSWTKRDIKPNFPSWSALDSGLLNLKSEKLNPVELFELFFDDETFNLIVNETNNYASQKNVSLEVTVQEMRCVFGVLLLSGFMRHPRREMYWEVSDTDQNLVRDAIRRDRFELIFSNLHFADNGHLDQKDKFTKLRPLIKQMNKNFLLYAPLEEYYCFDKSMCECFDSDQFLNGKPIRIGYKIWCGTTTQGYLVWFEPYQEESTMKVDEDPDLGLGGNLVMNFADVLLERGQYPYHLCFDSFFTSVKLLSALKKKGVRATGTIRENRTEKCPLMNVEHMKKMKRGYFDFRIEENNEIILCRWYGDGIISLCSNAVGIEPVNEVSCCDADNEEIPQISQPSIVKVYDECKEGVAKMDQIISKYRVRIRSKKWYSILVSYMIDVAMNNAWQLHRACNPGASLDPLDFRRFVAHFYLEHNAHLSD

B1: SCAN-12 / PGBD1 oligo (GS-PGBD1-UP/LOW) (dsDNA)
DNA 1: GCTTTCAATGGAATGGAATGCCTTCC
DNA 2: GGAAGGGATTCCATTCCATTGAAAGC
B2: unlabelled PGBD1 oligo (competitor) (dsDNA)
DNA 1: GCTTTCAATGGAATGGAATGCCTTCC
DNA 2: GGAAGGGATTCCATTCCATTGAAAGC

Columns and labels:
HA-PGBD1 [1] = target: T1, HA-PGBD1; assay: EMSA
HA-PGBD1 [2] = target: T1, HA-PGBD1; assay: competition

| Binder | binding result (HA-PGBD1 [1]) | binding result (HA-PGBD1 [2]) |
| --- | --- | --- |
| B1 | binds |  |
| B2 |  | binds |

Reference: paper doi:10.1101/2021.05.19.444448
